Data as given in paper PMC6448830 (2019).

Legend:
Test in all cases: SPR
[1] = target: T1, A. trivirgatus 2B4-Fc fusion protein (Aotus trivirgatus)
T1 chain: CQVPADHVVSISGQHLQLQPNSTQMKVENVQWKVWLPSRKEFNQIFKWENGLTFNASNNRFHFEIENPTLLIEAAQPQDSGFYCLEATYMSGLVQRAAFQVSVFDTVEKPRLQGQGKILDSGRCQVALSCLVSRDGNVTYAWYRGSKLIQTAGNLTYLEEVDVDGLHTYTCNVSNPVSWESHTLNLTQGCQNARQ

[2] = target: T2, human 2B4-Fc fusion protein (human, UniProt Q9BZW8 22-229)
T2 chain: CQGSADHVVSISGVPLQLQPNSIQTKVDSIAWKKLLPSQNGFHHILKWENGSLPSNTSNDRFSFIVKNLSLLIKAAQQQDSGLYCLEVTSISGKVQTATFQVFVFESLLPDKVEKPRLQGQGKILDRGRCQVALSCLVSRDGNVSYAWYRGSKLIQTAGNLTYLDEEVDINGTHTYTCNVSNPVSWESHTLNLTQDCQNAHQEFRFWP

[3] = target: T2, human 2B4-Fc fusion protein

B1: A. trivirgatus CD48-Fc fusion protein (Fc fusion)
chain: TSIQGNSVDVINAISGGNVTLNISESLPENVREITWFCTYHQKIADWDVKRLKYFDNKFKGRVRLDYQSGALYISKIQKEDANIYIMRVLKETMYEQEWKIRLQVFDPVPKPDIKIEKTAKVEDDCYLKLSCVIPDESVNYTWYGDKEPFPKEFQSGVLETTLKSQDYSRCYTCQVSNPVSSKNDTVCFS
modifications: biotin (biotinylated host CD48-Fc in the blocking ELISA)
[1]
  koff: 0.000489 s⁻¹

B2: human CD48-Fc fusion protein (Fc fusion)
chain: QGHLVHMTVVSGSNVTLNISESLPENYKQLTWFYTFDQKIVEWDSRKSKYFESKFKGRVRLDPQSGALYISKVQKEDNSTYIMRVLKKTGNEQEWKIKLQVLDPVPKPVIKIEKIEDMDDNCYLKLSCVIPGESVNYTWYGDKRPFPKELQNSVLETTLMPHNYSRCYTCQVSNSVSSKNGTVCLSPPCTLARS
modifications: biotin (biotinylated hCD48-Fc in the blocking assays)
[2]
  Kd: 23 nM
[3]
  koff: 0.0224 s⁻¹
